# In publication PMC8229658 (Viruses, 2021):
# B1: GST-tagged RBD (amino acids 1-73) of the NS1 of PR8 virus (domain or fragment)
# chain: MDPNTVSSFQVDCFLWHVRKRVADQELGDAPFLDRLRRDQKSLRGRGSTLGLDIETATRAGKQIVERILKEES
# notes: also called GST-RBD
# Biological target: T1, Flag-tagged human RuvBL2 (recombinant) (human, UniProt Q9Y230 1-463)
# T1 construct: also called Flag-RuvBL2
# Assay: pull-down
# Conditions: both partners purified
# T1 sequence (Q9Y230 whole entry): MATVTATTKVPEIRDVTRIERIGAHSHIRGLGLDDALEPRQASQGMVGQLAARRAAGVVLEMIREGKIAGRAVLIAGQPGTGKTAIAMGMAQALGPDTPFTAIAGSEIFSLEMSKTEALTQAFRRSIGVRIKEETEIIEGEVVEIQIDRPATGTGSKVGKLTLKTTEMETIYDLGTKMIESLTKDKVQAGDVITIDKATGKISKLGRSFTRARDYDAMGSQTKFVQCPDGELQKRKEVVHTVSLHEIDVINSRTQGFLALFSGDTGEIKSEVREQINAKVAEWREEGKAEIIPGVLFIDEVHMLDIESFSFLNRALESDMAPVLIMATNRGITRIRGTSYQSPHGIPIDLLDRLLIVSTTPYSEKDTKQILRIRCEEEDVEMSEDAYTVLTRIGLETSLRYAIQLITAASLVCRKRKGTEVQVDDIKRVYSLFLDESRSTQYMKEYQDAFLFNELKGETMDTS
binder,measurement,value
B1,binding result,binds
